For test [1], the target named is T1, hBCMA (human BCMA) (Homo sapiens, UniProt Q02223).
T1 sequence (Q02223 1-184): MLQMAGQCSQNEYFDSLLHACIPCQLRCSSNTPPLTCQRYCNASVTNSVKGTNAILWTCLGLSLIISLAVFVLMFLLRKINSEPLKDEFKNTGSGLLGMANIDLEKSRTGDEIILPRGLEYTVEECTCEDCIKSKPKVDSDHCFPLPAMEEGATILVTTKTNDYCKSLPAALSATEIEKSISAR
Nature of the test: Kinetics and affinity of hBCMA/human IgG interactions by SPR (Bio-Rad Proteon XPR36). It counts as binding. Particulars: human BCMA, 37° C. The method in brief: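 Anti-BCMA IgGs were amine-coupled to a GLC chip, and hBCMA analyte was injected as a single-cycle kinetic titration (0.08, 0.4, 2, 10, 50 nM; 2 min each) at 37° C. or 25° C. in HBS-T+ pH 7.4 with 1 mg/mL BSA. Dissociation was followed 2 hours, with double-referenced 1:1 Langmuir-plus-mass-transport fitting.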
(In general: Surface plasmon resonance follows binding to a sensor surface in real time, without labels.)

Test [2] has as its system Cyno BCMA. Kind of test: Kinetics and affinity of cyno BCMA/human IgG interactions by SPR (Bio-Rad Proteon XPR36). It counts as binding, cynomolgus. Particulars: 37° C.

B1: C01_Rd4_6 nM_C20: anti-BCMA antibody (antibody, V domains shown)
VH: EVQLLESGGGLVQPGGSLRLSCAASGFTFSSYPMSWVRQAPGKGLEWVSAIGGSGGSLPYADSVKGRFTISRDNSKNTLYLQMNSLRAEDTAVYYCARYWPMDSWGQGTLVTVSS
VL: EIVLTQSPGTLSLSPGERATLSCRASQSVSPLYLAWYQQKPGQAPRLLIYDASSRAPGIPDRFSGSGSGTDFTLTISRLEPEDFAVYYCQQYSAFPLTFGQGTKVEIK
In the case of B1, in test [1], the “ka Human” value is 6.02e+06 M⁻¹ s⁻¹ and the “kd Human” value is 0.00276 s⁻¹. In addition, in test [2], the “ka Cyno” value is 3.6e+06 M⁻¹ s⁻¹ and the “kd Cyno” value was found to be 0.00625 s⁻¹.

B2: COMBO_Rd4_6 nM_C25: anti-BCMA antibody (antibody, V domains shown)
VH: EVQLLESGGGLVQPGGSLRLSCAASGFTFSSYPMSWVRQAPGKGLEWVSAIGGSGGSTYYADSVKGRFTISRDNSKNTLYLQMNSLRAEDTAVYYCARYWPMDPWGQGTLVTVSS
VL: EIVLTQSPGTLSLSPGERATLSCRASQSVSSPYLAWYQQKPGQAPRLLMYDASIRATGIPDRFSGSGSGTDFTLTISRLEPEDFAVYYCQQYQSWPLTFGQGTKVEIK
With B2, in test [1], the “ka Human” value stood at 7.98e+06 M⁻¹ s⁻¹ and the “kd Human” value worked out at 0.000113 s⁻¹. Also, in test [2], the “ka Cyno” value is 2.85e+06 M⁻¹ s⁻¹ and the “kd Cyno” value was determined as 0.000226 s⁻¹.

B3: C01_Rd4_0.6 nM_C16: anti-BCMA antibody (antibody, V domains shown)
VH: EVQLLESGGGLVQPGGSLRLSCAASGFTFSSYPMSWVRQAPGKGLEWVSAIGGSGGSLPYADSVKGRFTISRDNSKNTLYLQMNSLRAEDTAVYYCARYWPMDSWGQGTLVTVSS
VL: EIVLTQSPGTLSLSPGERATLSCRASQSVSSTYLAWYQQKPGQAPRLLIYDASSRAPGIPDRFSGSGSGTDFTLTISRLEPEDFAVYYCQQYSSWPLTFGQGTKVEIK
As to B3, in test [1], the “ka Human” value came out at 1.55e+07 M⁻¹ s⁻¹ and the “kd Human” value was determined as 0.0063 s⁻¹. Also, in test [2], the “ka Cyno” value turned out to be 4.95e+06 M⁻¹ s⁻¹ and the “kd Cyno” value is 0.00464 s⁻¹.

B4: COMBO_Rd4_6 nM_C11: anti-BCMA antibody (antibody, V domains shown)
VH: EVQLLESGGGLVQPGGSLRLSCAASGFTFSSYPMSWVRQAPGKGLEWVSAIGGSGGSLGYADSVKGRFTISRDNSKNTLYLQMNSLRAEDTAVYYCARYWPMDSWGQGTLVTVSS
VL: EIVLTQSPGTLSLSPGERATLSCRASQSVSPLYLAWYQQKPGQAPRLLMYDASIRATGIPDRFSGSGSGTDFTLTISRLEPEDFAVYYCQQYKAWPLTFGQGTKVEIK
Take B4: in test [1], the “ka Human” value is 6.74e+06 M⁻¹ s⁻¹ and the “kd Human” value is 0.000124 s⁻¹. In test [2], the “ka Cyno” value was 2.64e+06 M⁻¹ s⁻¹ and the “kd Cyno” value was found to be 0.000412 s⁻¹.

B5: C01_Rd4_0.6 nM_C03: anti-BCMA antibody (antibody, V domains shown)
VH: EVQLLESGGGLVQPGGSLRLSCAASGFTFSSYPMSWVRQAPGKGLEWVSAIGGSGGSLPYADSVKGRFTISRDNSKNTLYLQMNSLRAEDTAVYYCARYWPMDSWGQGTLVTVSS
VL: EIVLTQSPGTLSLSPGERATLSCRASCDVSSTYLAWYQQKPGQAPRLLIYDASSRAPGIPDRFSGSGSGTDFTLTISRLEPEDFAVYYCQQYMRSPLTFGQGTKVEIK
For B5, in test [1], the “ka Human” value came out at 1.55e+07 M⁻¹ s⁻¹ and the “kd Human” value was 0.015 s⁻¹. For the same molecule, in test [2], the “ka Cyno” value is 4.72e+06 M⁻¹ s⁻¹ and the “kd Cyno” value amounted to 0.0119 s⁻¹.

B6: C01_Rd4_0.6 nM_C09: anti-BCMA antibody (antibody, V domains shown)
VH: EVQLLESGGGLVQPGGSLRLSCAASGFTFSSYPMSWVRQAPGKGLEWVSAIGGSGGSLPYADSVKGRFTISRDNSKNTLYLQMNSLRAEDTAVYYCARYWPMDSWGQGTLVTVSS
VL: EIVLTQSPGTLSLSPGERATLSCRASQSVSSLFLAWYQQKPGQAPRLLIYDASSRAPGIPDRFSGSGSGTDFTLTISRLEPEDFAVYYCQQYSAWPLTFGQGTKVEIK
On to B6, for which, in test [1], the “ka Human” value amounted to 1.51e+07 M⁻¹ s⁻¹ and the “kd Human” value worked out at 0.00825 s⁻¹. In test [2], the “ka Cyno” value was 5.28e+06 M⁻¹ s⁻¹ and the “kd Cyno” value came to 0.00936 s⁻¹.

B7: C01_Rd4_6 nM_C09: anti-BCMA antibody (antibody, V domains shown)
VH: EVQLLESGGGLVQPGGSLRLSCAASGFTFSSYPMSWVRQAPGKGLEWVSATVGSGGSIGYADSVKGRFTISRDNSKNTLYLQMNSLRAEDTAVYYCARYWPMDSWGQGTLVTVSS
VL: EIVLTQSPGTLSLSPGERATLSCACSQSVSSTYLAWYQQKPGQAPRLLIYDASSRAPGIPDRFSGSGSGTDFTLTISRLEPEDFAVYYCQQYSAWPLTFGQGTKVEIK
Take B7: in test [1], the “ka Human” value worked out at 1.58e+07 M⁻¹ s⁻¹ and the “kd Human” value was 0.0128 s⁻¹. Further, in test [2], the “ka Cyno” value worked out at 3.73e+06 M⁻¹ s⁻¹ and the “kd Cyno” value turned out to be 0.00868 s⁻¹.

B8: COMBO_Rd4_0.6 nM_C20: anti-BCMA antibody (antibody, V domains shown)
VH: EVQLLESGGGLVQPGGSLRLSCAASGFTFSSYPMSWVRQAPGKGLEWVSAIGGSGGSLPYADSVKGRFTISRDNSKNTLYLQMNSLRAEDTAVYYCARYWPMDSWGQGTLVTVSS
VL: EIVLTQSPGTLSLSPGERATLSCRASQSVSYLYLAWYQQKPGQAPRLLMYDASIRATGIPDRFSGSGSGTDFTLTISRLEPEDFAVYYCQQYMEWPLTFGQGTKVEIK
For the molecule B8, in test [1], the “ka Human” value was 7.65e+06 M⁻¹ s⁻¹ and the “kd Human” value was 0.000146 s⁻¹. Also, in test [2], the “ka Cyno” value amounted to 3.09e+06 M⁻¹ s⁻¹ and the “kd Cyno” value worked out at 0.000284 s⁻¹.

B9: COMBO_Rd4_0.6 nM_C04: anti-BCMA antibody (antibody, V domains shown)
VH: EVQLLESGGGLVQPGGSLRLSCAASGFTFSSYPMSWVRQAPGKGLEWVSAHIGSGGSTYYADSVKGRFTISRDNSKNTLYLQMNSLRAEDTAVYYCARYWPMDSWGQGTLVTVSS
VL: EIVLTQSPGTLSLSPGERATLSCRASQSVSSTYLAWYQQKPGQAPRLLMYDASIRATGIPDRFSGSGSGTDFTLTISRLEPEDFAVYYCQQYQSWPLTFGQGTKVEIK
Consider B9, for which, in test [1], the “ka Human” value is 1.07e+07 M⁻¹ s⁻¹ and the “kd Human” value came to 0.000158 s⁻¹. Further, in test [2], the “ka Cyno” value came to 3.52e+06 M⁻¹ s⁻¹ and the “kd Cyno” value is 0.000137 s⁻¹.

B10: C01_Rd4_6 nM_C04: anti-BCMA antibody (antibody, V domains shown)
VH: EVQLLESGGGLVQPGGSLRLSCAASGFTFSSYPMSWVRQAPGKGLEWVSAIGGSGGSLPYADSVKGRFTISRDNSKNTLYLQMNSLRAEDTAVYYCARYWPMDSWGQGTLVTVSS
VL: EIVLTQSPGTLSLSPGERATLSCCSSQSVSSTYLAWYQQKPGQAPRLLIYDASSRAPGIPDRFSGSGSGTDFTLTISRLEPEDFAVYYCQQYSAFPLTFGQGTKVEIK
Turning to B10, in test [1], the “ka Human” value was 2.33e+07 M⁻¹ s⁻¹ and the “kd Human” value amounted to 0.0497 s⁻¹. Moreover, in test [2], the “ka Cyno” value is 6.34e+06 M⁻¹ s⁻¹ and the “kd Cyno” value turned out to be 0.0327 s⁻¹.

B11: COMBO_Rd4_6 nM_C21: anti-BCMA antibody (antibody, V domains shown)
VH: EVQLLESGGGLVQPGGSLRLSCAASGFTFSSYPMSWVRQAPGKGLEWVSAIGGSGGSLPYADSVKGRFTISRDNSKNTLYLQMNSLRAEDTAVYYCARYWPMDSWGQGTLVTVSS
VL: EIVLTQSPGTLSLSPGERATLSCRASQSVSAAYLAWYQQKPGQAPRLLMYDASIRATGIPDRFSGSGSGTDFTLTISRLEPEDFAVYYCQQYMCWPLTFGQGTKVEIK
For the molecule B11, in test [1], the “ka Human” value is 1.17e+07 M⁻¹ s⁻¹ and the “kd Human” value came to 7.34e-05 s⁻¹. Further, in test [2], the “ka Cyno” value is 3.17e+06 M⁻¹ s⁻¹ and the “kd Cyno” value was found to be 0.000248 s⁻¹.

B12: COMBO_Rd4_0.6 nM_C21: anti-BCMA antibody (antibody, V domains shown)
VH: EVQLLESGGGLVQPGGSLRLSCAASGFTFSSYPMSWVRQAPGKGLEWVSAIGGSGGSLPYADSVKGRFTISRDNSKNTLYLQMNSLRAEDTAVYYCARYWPMDSWGQGTLVTVSS
VL: EIVLTQSPGTLSLSPGERATLSCRASQSVSSSYLAWYQQKPGQAPRLLMYDASIRATGIPDRFSGSGSGTDFTLTISRLEPEDFAVYYCQQYQSWPLTFGQGTKVEIK
Take B12: in test [1], the “ka Human” value is 1.34e+07 M⁻¹ s⁻¹ and the “kd Human” value came out at 0.000115 s⁻¹. In addition, in test [2], the “ka Cyno” value is 3.63e+06 M⁻¹ s⁻¹ and the “kd Cyno” value was determined as 0.000304 s⁻¹.

B13: C01_Rd4_0.6 nM_C06: anti-BCMA antibody (antibody, V domains shown)
VH: EVQLLESGGGLVQPGGSLRLSCAASGFTFSSYPMSWVRQAPGKGLEWVSAIGGSGGSLPYADSVKGRFTISRDNSKNTLYLQMNSLRAEDTAVYYCARYWPMDSWGQGTLVTVSS
VL: EIVLTQSPGTLSLSPGERATLSCRASEAVPSTYLAWYQQKPGQAPRLLIYDASSRAPGIPDRFSGSGSGTDFTLTISRLEPEDFAVYYCQQYSAFPLTFGQGTKVEIK
With B13, in test [1], the “ka Human” value was 1.82e+07 M⁻¹ s⁻¹ and the “kd Human” value is 0.0154 s⁻¹. In test [2], the “ka Cyno” value was determined as 6.22e+06 M⁻¹ s⁻¹ and the “kd Cyno” value came out at 0.0121 s⁻¹.

B14: COMBO_Rd4_6 nM_C10: anti-BCMA antibody (antibody, V domains shown)
VH: EVQLLESGGGLVQPGGSLRLSCAASGFTFSSYPMSWVRQAPGKGLEWVSAIGGSGGSIHYADSVKGRFTISRDNSKNTLYLQMNSLRAEDTAVYYCARYWPMDSWGQGTLVTVSS
VL: EIVLTQSPGTLSLSPGERATLSCRASQSVSSSYWGWYQQKPGQAPRLLMYDASIRATGIPDRFSGSGSGTDFTLTISRLEPEDFAVYYCQQYQCWPLTFGQGTKVEIK
With B14, in test [1], the “ka Human” value was determined as 5.47e+06 M⁻¹ s⁻¹ and the “kd Human” value was 9.72e-05 s⁻¹. In addition, in test [2], the “ka Cyno” value was determined as 1.52e+06 M⁻¹ s⁻¹ and the “kd Cyno” value was determined as 0.00016 s⁻¹.

The values are drawn from patent publication US11814435B2, “Therapeutic antibodies and their uses” (PFIZER INC., priority 2015, dated 2023).
